Substitutions are numbered along the chain they refer to.
T1: human CNTN4-rabbit Fc (human; rabbit, UniProt Q8IWV2 19-1000, limits assumed)
T1 construct: not shown: rabbit Fc
T1 sequence (looked up): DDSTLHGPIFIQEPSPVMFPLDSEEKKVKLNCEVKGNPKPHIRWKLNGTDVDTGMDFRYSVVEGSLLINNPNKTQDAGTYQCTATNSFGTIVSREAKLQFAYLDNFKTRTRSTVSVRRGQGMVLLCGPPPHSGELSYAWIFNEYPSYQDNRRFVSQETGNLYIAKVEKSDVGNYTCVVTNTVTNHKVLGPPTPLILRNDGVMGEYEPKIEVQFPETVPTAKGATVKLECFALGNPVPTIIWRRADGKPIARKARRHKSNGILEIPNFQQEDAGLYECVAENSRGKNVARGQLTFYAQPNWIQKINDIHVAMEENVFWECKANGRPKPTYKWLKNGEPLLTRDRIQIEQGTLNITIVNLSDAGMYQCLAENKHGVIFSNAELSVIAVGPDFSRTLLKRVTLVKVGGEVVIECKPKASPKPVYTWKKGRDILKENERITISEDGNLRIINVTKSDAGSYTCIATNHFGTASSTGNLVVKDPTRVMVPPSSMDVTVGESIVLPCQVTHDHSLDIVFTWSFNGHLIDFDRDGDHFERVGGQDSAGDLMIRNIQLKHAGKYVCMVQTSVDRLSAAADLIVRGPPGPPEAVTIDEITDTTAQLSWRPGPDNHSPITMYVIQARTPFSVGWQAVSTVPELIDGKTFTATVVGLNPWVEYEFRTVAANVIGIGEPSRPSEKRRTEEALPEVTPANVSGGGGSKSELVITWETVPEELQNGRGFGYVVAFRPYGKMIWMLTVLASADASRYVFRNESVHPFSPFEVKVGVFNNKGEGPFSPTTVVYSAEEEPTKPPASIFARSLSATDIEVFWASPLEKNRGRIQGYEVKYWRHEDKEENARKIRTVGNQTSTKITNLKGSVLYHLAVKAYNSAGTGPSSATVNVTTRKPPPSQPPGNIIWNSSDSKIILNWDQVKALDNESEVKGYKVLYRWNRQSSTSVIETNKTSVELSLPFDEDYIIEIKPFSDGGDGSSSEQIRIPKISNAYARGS

T2: mouse CNTN4-rabbit Fc (mouse; rabbit, UniProt Q69Z26 19-1000, limits assumed)
T2 construct: not shown: rabbit Fc
T2 sequence (looked up): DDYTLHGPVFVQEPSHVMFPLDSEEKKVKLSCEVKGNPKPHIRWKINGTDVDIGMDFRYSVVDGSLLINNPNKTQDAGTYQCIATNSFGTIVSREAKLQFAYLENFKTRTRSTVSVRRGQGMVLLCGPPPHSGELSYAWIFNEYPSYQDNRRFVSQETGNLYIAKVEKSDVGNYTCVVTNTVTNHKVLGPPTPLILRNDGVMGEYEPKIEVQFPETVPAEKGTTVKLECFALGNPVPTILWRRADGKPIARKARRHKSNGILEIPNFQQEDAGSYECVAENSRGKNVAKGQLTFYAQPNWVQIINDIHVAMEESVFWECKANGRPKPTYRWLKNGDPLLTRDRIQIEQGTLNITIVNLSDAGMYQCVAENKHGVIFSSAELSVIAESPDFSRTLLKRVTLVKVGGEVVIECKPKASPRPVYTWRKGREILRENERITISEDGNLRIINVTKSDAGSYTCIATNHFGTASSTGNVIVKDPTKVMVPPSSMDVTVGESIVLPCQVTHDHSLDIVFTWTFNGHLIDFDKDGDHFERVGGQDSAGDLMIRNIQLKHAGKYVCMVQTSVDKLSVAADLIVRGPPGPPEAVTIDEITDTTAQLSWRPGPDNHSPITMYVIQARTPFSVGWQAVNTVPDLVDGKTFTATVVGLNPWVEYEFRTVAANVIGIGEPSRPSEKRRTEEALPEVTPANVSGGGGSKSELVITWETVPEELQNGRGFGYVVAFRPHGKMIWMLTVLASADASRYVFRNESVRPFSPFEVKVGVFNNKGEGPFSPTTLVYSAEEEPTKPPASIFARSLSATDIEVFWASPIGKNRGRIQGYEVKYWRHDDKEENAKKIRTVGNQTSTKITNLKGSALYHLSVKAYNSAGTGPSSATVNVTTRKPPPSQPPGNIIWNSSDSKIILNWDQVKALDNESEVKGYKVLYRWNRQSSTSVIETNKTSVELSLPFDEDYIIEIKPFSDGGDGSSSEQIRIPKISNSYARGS

T3: human CNTN4 antigen expressed on the cell membrane of 293FT cells (human) (UniProt Q8IWV2)
T3 sequence (looked up): T1 sequence (looked up)

T4: human CNTN4-10xHis (human, UniProt Q8IWV2 19-1000)
T4 sequence: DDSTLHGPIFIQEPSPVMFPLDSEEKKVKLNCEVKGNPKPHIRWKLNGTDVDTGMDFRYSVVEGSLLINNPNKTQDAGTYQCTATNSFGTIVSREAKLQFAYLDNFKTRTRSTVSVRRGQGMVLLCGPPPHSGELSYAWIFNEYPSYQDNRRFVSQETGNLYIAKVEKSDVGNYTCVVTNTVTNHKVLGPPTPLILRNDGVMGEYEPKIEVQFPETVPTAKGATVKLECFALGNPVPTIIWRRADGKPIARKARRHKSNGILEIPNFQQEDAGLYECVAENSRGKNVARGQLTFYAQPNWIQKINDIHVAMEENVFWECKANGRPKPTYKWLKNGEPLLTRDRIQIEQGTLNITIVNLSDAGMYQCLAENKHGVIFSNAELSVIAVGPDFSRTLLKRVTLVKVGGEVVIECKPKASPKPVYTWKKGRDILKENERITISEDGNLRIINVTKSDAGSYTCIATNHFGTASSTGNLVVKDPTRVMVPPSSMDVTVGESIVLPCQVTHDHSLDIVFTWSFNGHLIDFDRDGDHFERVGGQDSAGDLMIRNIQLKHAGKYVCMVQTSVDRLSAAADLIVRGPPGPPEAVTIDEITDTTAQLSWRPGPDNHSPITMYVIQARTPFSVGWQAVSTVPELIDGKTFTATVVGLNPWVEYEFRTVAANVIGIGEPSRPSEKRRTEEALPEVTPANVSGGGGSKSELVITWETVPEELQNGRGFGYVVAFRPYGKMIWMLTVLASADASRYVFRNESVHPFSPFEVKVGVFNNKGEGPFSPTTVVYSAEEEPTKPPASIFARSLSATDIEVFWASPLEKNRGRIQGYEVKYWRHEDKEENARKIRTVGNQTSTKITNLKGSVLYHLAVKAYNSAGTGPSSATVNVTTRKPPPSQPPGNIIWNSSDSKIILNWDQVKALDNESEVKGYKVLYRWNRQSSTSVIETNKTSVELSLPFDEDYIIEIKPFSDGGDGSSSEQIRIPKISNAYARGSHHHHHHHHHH

T5: mouse CNTN4-10xHis (mouse, UniProt Q69Z26 19-1000)
T5 sequence: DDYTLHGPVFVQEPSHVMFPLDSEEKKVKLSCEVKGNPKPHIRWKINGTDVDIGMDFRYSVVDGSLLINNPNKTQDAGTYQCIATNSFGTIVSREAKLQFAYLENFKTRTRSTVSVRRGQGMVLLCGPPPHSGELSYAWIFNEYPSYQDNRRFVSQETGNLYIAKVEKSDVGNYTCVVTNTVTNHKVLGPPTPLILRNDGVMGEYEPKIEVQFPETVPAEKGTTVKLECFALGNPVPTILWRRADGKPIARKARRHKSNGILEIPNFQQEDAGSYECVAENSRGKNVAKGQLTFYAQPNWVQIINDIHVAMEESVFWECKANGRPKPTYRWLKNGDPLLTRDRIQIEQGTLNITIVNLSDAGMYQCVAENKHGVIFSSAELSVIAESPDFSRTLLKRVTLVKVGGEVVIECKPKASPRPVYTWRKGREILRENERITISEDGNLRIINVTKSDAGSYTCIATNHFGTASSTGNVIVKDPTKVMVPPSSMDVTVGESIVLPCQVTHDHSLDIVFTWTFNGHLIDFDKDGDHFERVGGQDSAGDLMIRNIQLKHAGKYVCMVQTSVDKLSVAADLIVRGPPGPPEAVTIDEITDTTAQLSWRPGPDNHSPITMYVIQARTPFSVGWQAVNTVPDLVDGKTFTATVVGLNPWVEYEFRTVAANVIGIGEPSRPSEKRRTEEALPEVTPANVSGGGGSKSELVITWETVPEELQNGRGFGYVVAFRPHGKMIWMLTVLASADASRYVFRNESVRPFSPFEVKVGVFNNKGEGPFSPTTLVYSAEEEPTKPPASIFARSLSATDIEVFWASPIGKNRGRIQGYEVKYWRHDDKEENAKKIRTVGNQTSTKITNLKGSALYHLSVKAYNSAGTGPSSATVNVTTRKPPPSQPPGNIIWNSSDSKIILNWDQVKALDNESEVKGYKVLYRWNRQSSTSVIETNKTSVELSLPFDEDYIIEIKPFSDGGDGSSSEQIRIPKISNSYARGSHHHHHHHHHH

B1: anti-CNTN4 scFv-hCk S132 (scFv, part only; not given: linker and kappa constant region, V domains shown, not shown: another chain or arm of the molecule; a dimerising Fc or GST; small tags and cut ends)
VL: ALTQPSSVSANPGETVKITCSGGGSSTYYGWYQQKSPGSAPVTVIYNNNNRPSDIPSRFSGSGSGSTGTLTITGVRAEDEAVYYCGGYDGSTDVFGAGTTLTVL
VH: AVTLDESGGGLQTPGGALSLVCKASGFTFSSFNMFWVRQAPGKGLEYVAEISGGGGSTWYAPAVKGRATISRDNGQSTVRLQLNNLRAEDTGTYYCAKSADTWSYGAATIDAWGHGTEVIVSS
B2: anti-CNTN4 scFv-hCk S134 (scFv, part only; not given: linker and kappa constant region, V domains shown, not shown: another chain or arm of the molecule; a dimerising Fc or GST; small tags and cut ends)
VL: ALTQPSSVSANPGETVKITCSGGTYSYGNYYYGWYQQKSPGSAPVTVIYNNNNRPSDIPSRFSGSGSGSTGTLTITGVRAEDEAVYYCGGYDGSTDVFGAGTTLTVL
VH: B1 VH with G8E
B3: anti-CNTN4 scFv-hCk S135 (scFv, part only; not given: linker and kappa constant region, V domains shown, not shown: another chain or arm of the molecule; a dimerising Fc or GST; small tags and cut ends)
VL: ALTQPSSVSANPGETVKITCSGGGSSSYYGWYQQKSPGSAPVTVIYYNNRPSDIPSRFSGSGSGSTGTLTITGVRAEDEAVYYCGGYDGSTDVFGAGTTLTVL
VH: B1 VH with G8E
B4: anti-CNTN4 scFv-hCk S137 (scFv, part only; not given: linker and kappa constant region, not shown: a dimerising Fc or GST)
scFv, part: ALTQPSSVSANPGETVKITCSGGSSYGWYQQKSPGSAPVTVIYDNTNRPSNIPSRFSGSKSGSTNTLTITGVQAEDEAVYYCGGYDGSTDAFGAGTTLTVLAVTLDESEGGLQTPGGALSLVCKASGFTFSSFNMFWVRQAPGKGLEYVAEISGGGGSTWYAPAVKGRATISRDNGQSTVRLQLNNLRAEDTGTYYCAKSADTWSYGAATIDAWGHGTEVIVSS
B5: anti-CNTN4 scFv-hCk S138 (scFv, part only; not given: linker and kappa constant region, V domains shown, not shown: another chain or arm of the molecule; a dimerising Fc or GST; small tags and cut ends)
VL: ALTQPSSVSANPGETVNITCSGGGSYAGSYYYGWYQQKAPGSAPVTVIYDSTNRPSNIPSRFSGSLSGSTNTLTITGVRAEDEAVYYCGGYDGSTDVFGAGTTLTVL
VH: B1 VH with G8E
B6: anti-CNTN4 humanized antibody LAH2 (antibody, V domains shown)
VH: EVQLLESEGGLVQPGGSLRLSCAASGFTFSSFNMFWVRQAPGKGLEWVAEISGGGGSTWYAPAVKGRATISRDNSKNTVYLQMNSLRAEDTAVYYCAKSADTWSYGAATIDAWGQGTLVTVSS
VL: ALTQPSSVSANLGETVKITCSGSSGSYGWYQQKSPGSAPVTLIYDNTNRPSDIPSRFSGSGSGSTGTLTITGVRAEDEAVYYCGGYDGSTDVFGAGTTLTVL
notes: in the form of IgG4
B7: anti-CNTN4 humanized antibody L2H2 (antibody, V domains shown)
VH: B6 VH
VL: ELTQDPAVSVALGQTVRITCSGSSGSYGWYQQKPGQAPVTLIYDNTNRPSGIPDRFSGSSSGSTGSLTITGAQAEDEADYYCGGYDGSTDVFGGGTKLTVL
notes: in the form of IgG4

Legend:
[1] = target: T1, human CNTN4-rabbit Fc; assay: ELISA, plate coated with antigen-rabbit Fc, anti-human kappa-HRP
[2] = target: T2, mouse CNTN4-rabbit Fc; assay: as above
[3] = target: T3, human CNTN4 antigen expressed on the cell membrane of 293FT cells (human); assay: FACS, 293FT cells transfected with human CNTN4, 40 ug/mL, anti-hCk-PE
[4] = target: T4, human CNTN4-10xHis; assay: ELISA, plate coated with CNTN4-10xHis, anti-human Fc-HRP
Protocol: (§1) The LAH2, L1H2, and L2H2 antibodies prepared in Example 3.1 were subjected to an ELISA test together with A-01. An ELISA plate was coated with 200 ng of antigens (human CNTN4-10xHis or mouse CNTN4-10xHis). For antibody binding, antibodies were serially diluted from a maximum of 1 μM to 0.0001 nM, thereby binding to the antigen. Anti-human Fc-HRP was used as a secondary antibody for antibody detection. Color was developed using ABTS, which is a color developing reagent, and the absorbance at 405 nm was measured.

[5] = target: T5, mouse CNTN4-10xHis; assay: as above
Protocol: as §1

Binder | EC50 [1] | EC50 [2] | Shift % [3] | EC50 [4] | EC50 [5]
B1 | 1160 pM | 720 pM | 16.1% |  | 
B2 | 750 pM | 750 pM | 18% |  | 
B3 | 1060 pM | 710 pM | 18.2% |  | 
B4 | 410 pM | 520 pM | 15.3% |  | 
B5 | 2370 pM | 1060 pM | 15.8% |  | 
B6 |  |  |  | 17 pM | 17 pM
B7 |  |  |  | 18 pM | 19 pM
